Values quoted from earlier work, collected in patent publication US10905736B2, “Ezetimibe-associated ApoA-I mimetic peptides showing enhanced synergism” (The Regents of the University of California, priority 2016, dated 2021).

Details: two hours after LDLR-/- mice finished eating WD containing Tg6F; cited from earlier work

DWLKAFYDKFFEKFKEFF [6F peptide]
presence of intact peptide in small intestine and plasma: found in the small intestine but not in the plasma
